In patent publication US20260265358A1 (BYOMASS, published 2026):
Values joined by “and” are separate entries in the source; they are usually repeats but may differ in a detail not shown here. Equal entries are not always repeated.

T1: biotinylated Human Activin A (human, UniProt P03970 309-424 (pig entry), biotinylated (EZ-Link Sulfo-NHS-Biotinylation Kit))
T1 sequence: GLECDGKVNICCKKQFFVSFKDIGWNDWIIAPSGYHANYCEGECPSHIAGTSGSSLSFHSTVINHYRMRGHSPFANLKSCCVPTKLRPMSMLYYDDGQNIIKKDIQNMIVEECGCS

T2: Human Activin A Fc (human, UniProt P03970 309-424 (pig entry))
T2 construct: also called human Activin A-Fc fusion; human Activin A-Fc antigen; not shown: Fc part
T2 sequence: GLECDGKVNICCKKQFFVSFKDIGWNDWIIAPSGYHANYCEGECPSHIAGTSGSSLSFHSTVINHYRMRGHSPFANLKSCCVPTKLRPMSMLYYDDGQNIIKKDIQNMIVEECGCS


Columns and labels:
[1] = molecular target: T1, biotinylated Human Activin A; experiment: SPR (Biacore 8K), antigen captured, Fab analyte
Procedure: Kinetic analysis was conducted at 25° C. in HBS-EP+ running buffer (10 mM HEPES pH 7.4, 150 mM NaCl, 3 mM EDTA, 0.05% Surfactant P20) using a Biacore 8K optical biosensor (Cytiva, Marlborough, MA). The sample compartment was maintained at 10° C. for the duration of the experiment. The Biacore 8K can analyze up to 8 separate interactions in a single cycle.
Each experiment cycle began with an injection (300 s at 2 μL/min) overflow cells 1 and 2 of a 1:100 solution of biotin CAPture reagent (Cytiva) in running buffer. This was followed by an injection (45 s at 10.0 μL/min) of biotinylated human ACTIVIN A (5 nM) overflow cell 2. Upon capture of ACTIVIN A to the sensor surface, a single concentration of Fab ranging from 0.111-81.0 nM was injected (300 s at 30 μL/min) overflow cells 1 and 2. The dissociation of the antibodies were monitored for 3420 s. Finally, an injection (120 s at 10 μL/min) of regeneration solution (6 M Guanidine-HCl in 0.25 M NaOH) overflow cells 1 and 2 prepared the sensor surface for another cycle. Several blank buffer samples were injected (300 s at 30 μL/min) overflow cells 1 and 2 throughout the duration of the experiment and used for reference surface subtraction—each were monitored for the same amount of dissociation time (3420 s) and regenerated under the same conditions as those for the Fab sample injections.
The anti-Activin antibodies identified in Example 1 were characterized. First, binding kinetics of the anti-Activin antibodies was assessed with a Surface Plasmon Resonance assay (Biacore).

Human Activin A Fc = molecular target: T2, Human Activin A Fc; experiment: Octet BLI, Fab, monovalent

Row | Binder | Kd [1] | koff [1] | kon [1] | Kd (Human Activin A Fc) [nM]
1 | Fab of anti-Activin A antibody Clone Q (Fab, V domains shown, Fab format; only VH and VL are tied to the clone; also called Clone Q Fab) VH: QVQLVQSGAEVKKPGSSVKVSCKASGGSFSPYTWSWVRQAPGQGLEWMGGIIPISGTANTAQKFQGRVTITADESTSTAYMELSSLRSEDTAVYYCARGGPLSGWRASYYYWGQGTLVTVSS VL: not shown | 0.24 nM | 0.000175 s⁻¹ | 728000 M⁻¹ s⁻¹ | 1.75
2 | Fab of anti-Activin A antibody Clone A (Fab, V domains shown, Fab format; only VH and VL are tied to the clone; also called Clone A Fab) VH: QVQLVQSGAEVKKPGASVKVSCKASGYTFTGYYMHWVRQAPGQGLEWMGSINPSSGGTNYAQKFQGRVTMTTDTSTSTAYMELRSLRSDDTAVYYCARARDIAAAGLGAFDYWGQGTLVTVSS VL: EIVLTQSPGTLSLSPGERATLSCRASQSVRSSYLAWYQQKPGQAPRLLIYGASSRATGIPDRFSGSGSGTDFTLTISRLEPEDFAVYYCQQYVSYPRTFGGGTKVEIK |  |  |  | 2.02
3 | Fab of anti-Activin A antibody Clone I (Fab, V domains shown, Fab format; only VH and VL are tied to the clone; also called Clone I Fab) VH: QVQLVQSGAEVKKPGSSVKVSCKASGGTFSNYAISWVRQAPGQGLEWMGYIIPFFGTANYAQKFQGRVTITADESTSTAYMELSSLRSEDTAVYYCARGGSGYSTSWGSSLYWGQGTLVTVSS VL: EIVLTQSPGTLSLSPGERATLSCRASQSVSSSYLAWYQQKPGQAPRLLIYGASYRATGIPDRFSGSGSGTDFTLTISRLEPEDFAVYYCLQSGVFPYTFGGGTKVEIK | 0.0616 nM | 7.38e-05 s⁻¹ | 1.2e+06 M⁻¹ s⁻¹ | 0.857
4 | Fab of anti-Activin A antibody Clone G (Fab, V domains shown, Fab format; only VH and VL are tied to the clone; also called Clone G Fab) VH: QVQLVQSGAEVKKPGASVKVSCKASGYTFTSYYIHWVRQAPGQGLEWMGAIYAYSGDTNYAQKLQGRVTMTTDTSTSTAYMELRSLRSDDTAVYYCARARDIAAAGLGAFDYWGQGTLVTVSS VL: EIVLTQSPGTLSLSPGERATLSCRASQSVRSSYLAWYQQKPGQAPRLLIYGASSRATGIPDRFSGSGSGTDFTLTISRLEPEDFAVYYCQQYSNYPRTFGGGTKVEIK | 0.0849 nM | 0.000124 s⁻¹ | 1.46e+06 M⁻¹ s⁻¹ | 1.09
5 | Fab of anti-Activin A antibody Clone E (Fab, V domains shown, Fab format; only VH and VL are tied to the clone; also called Clone E Fab) VH: QVQLVQSGAEVKKPGASVKVSCKASGYTFHGYNMHWVRQAPGQGLEWMGSINPYSGYTIYAQKFQGRVTMTRDTSISTAYMELSRLRSDDTAVYYCARARDIAAAGLGAFDYWGQGTLVTVSS VL: EIVLTQSPGTLSLSPGERATLSCRASQSVRSSYLAWYQQKPGQAPRLLIYGASSRATGIPDRFSGSGSGTDFTLTISRLEPEDFAVYYCQQYVSYPRTFGGGTKVEIK | 0.0779 nM | 0.000174 s⁻¹ | 2.23e+06 M⁻¹ s⁻¹ | 0.79
6 | Fab of anti-Activin A antibody Clone J (Fab, V domains shown, Fab format; only VH and VL are tied to the clone; also called Clone J Fab) VH: EVQLVQSGAEVKKPGSSVKVSCKASGGTFSLYAISWVRQAPGQGLEWMGGIIPYFGTANYAQKFQGRVTITADESTSTAYMELSSLRSEDTAVYYCARGGSGYSTSWGSSLYWGQGTLVTVSS VL: EIVLTQSPGTLSLSPGERATLSCRASQSVSSSYLAWYQQKPGQAPRLLIYGAFSRATGIPDRFSGSGSGTDFTLTISRLEPEDFAVYYCQQSGVFPYTFGGGTKVEIK | 0.118 nM |  |  | 
7 | Fab of anti-Activin A antibody Clone M (Fab, V domains shown, Fab format; only VH and VL are tied to the clone; also called Clone M Fab) VH: QLQLQESGPGLVKPSETLSLTCTVSGGSISSSDYYWGWIRQPPGKGLEWIGSIYYPANTYYNPSLKSRVTISVDTSKNQFSLKLSSVTAADTAVYYCARGYWNYGMDVWGQGTTVTVSS VL: not shown |  |  |  | 4.53

The remaining binders from weak to strong by Kd (Human Activin A Fc), led by results:

Row | Kd [1] | koff [1] | kon [1] | Kd (Human Activin A Fc) [nM] | Binder
8 |  |  |  | 4.85 | Fab of anti-Activin A antibody Clone N (Fab, V domains shown, Fab format; only VH and VL are tied to the clone; also called Clone N Fab) VH: QLQLQESGPGLVKPSETLSLTCTVSGGSISSSDYYWGWIRQPPGKGLEWIGSIYYPASTYYNPSLKSRVTISVDTSKNQFSLKLSSVTAADTAVYYCARGYWNYGMDVWGQGTTVTVSS VL: not shown
9 |  |  |  | 4.14 | Fab of anti-Activin A antibody Clone L (Fab, V domains shown, Fab format; only VH and VL are tied to the clone; also called Clone L Fab) VH: QVQLQESGPGLVKPSETLSLTCAVSGYSISSGYYWGWIRQPPGKGLEWIGSIYHSGSTYYNPSLKSRVTISVDTSKNQFSLKLSSVTAADTAVYYCAREAGSGYWYLSVYGMDVWGQGTTVTVSS VL: EIVLTQSPATLSVSPGERATLSCRASQSVSSNLAWYQQKPGQAPRLLIYGASTRATGIPARFSGSGSGTEFTLTISSLQSEDFAVYYCQQSDDWPWTFGGGTKVEIK
10 |  |  |  | 2.9 | Fab of anti-Activin A antibody Clone R (Fab, V domains shown, Fab format; only VH and VL are tied to the clone; also called Clone R Fab) VH: QVQLVQSGAEVKKPGSSVKVSCKASGGSFSPYTISWVRQAPGQGLEWMGGIILTSGTANYAQKFQGRVTITADESTSTAYMELSSLRSEDTAVYYCARGGPLSGWRASYYYWGQGTLVTVSS VL: not shown
11 |  |  |  | 1.92 | Fab of anti-Activin A antibody Clone O (Fab, V domains shown, Fab format; only VH and VL are tied to the clone; also called Clone O Fab) VH: QVQLVQSGAEVKKPGSSVKVSCKASGGTFSNYDINWVRQAPGQGLEWMGGIIPVFGTAAYAQKFQGRVTITADESTSTAYMELSSLRSEDTAVYYCAREARDGYRYAFQHWGQGTLVTVSS VL: EIVMTQSPATLSVSPGERATLSCRASQSVSSNLAWYQQKPGQAPRLLIYGASTRATGIPARFSGSGSGTEFTLTISSLQSEDFAVYYCQQYNNWPITFGGGTKVEIK
12 | 0.96 nM | 0.000371 s⁻¹ | 386000 M⁻¹ s⁻¹ | 1.86 | Fab of anti-Activin A antibody Clone H (Fab, V domains shown, Fab format; only VH and VL are tied to the clone; also called Clone H Fab) VH: QVQLVQSGAEVKKPGASVKVSCKASGYTFTGYHIHWVRQAPGQGLEWMGHISAYSGTTNYAQKLQGRVTMTTDTSTSTAYMELRSLRSDDTAVYYCARARDIAAAGLGAFDYWGQGTLVTVSS VL: EIVLTQSPGTLSLSPGERATLSCRASQSVRSSYLAWYQQKPGQAPRLLIYGASSRATGIPDRFSGSGSGTDFTLTISRLEPEDFAVYYCQQYSNYPRTFGGGTKVEIK
13 |  |  |  | 1.53 | Fab of anti-Activin A antibody Clone P (Fab, V domains shown, Fab format; only VH and VL are tied to the clone; also called Clone P Fab) VH: QVQLVQSGAEVKKPGSSVKVSCKASGGTFDDYAISWVRQAPGQGLEWMGGIIPRFGIANYAQKFQGRVTITADESTSTAYMELSSLRSEDTAVYYCARPPSSGSDWGQGTLVTVSS VL: DIQMTQSPSSVSASVGDRVTITCRASQGIDSWLAWYQQKPGKAPKLLIYAASSLQSGVPSRFSGSGSGTDFTLTISSLQPEDFATYYCQQVHSFPITFGGGTKVEIK
14 | 0.0367 nM | 0.000119 s⁻¹ | 3.25e+06 M⁻¹ s⁻¹ | 0.925 | Fab of anti-Activin A antibody Clone K (Fab, V domains shown, Fab format; only VH and VL are tied to the clone; also called Clone K Fab) VH: QVQLVQSGAEVKKPGSSVKVSCKASGGTSSSYAISWVRQAPGQGLEWMGYIIPAFGTANYAQKFQGRVTITADESTSTAYMELSSLRSEDTAVYYCARPVRTYPLGKYFYHWGQGTLVTVSS VL: EIVLTQSPATLSLSPGERATLSCRASQSVSSYLAWYQQKPGQAPRLLIYDASNRATGIPARFSGSGSGTDFTLTISSLEPEDFAVYYCQQDSIFPPYTFGGGTKVEIK
15 | 0.00986 nM and 0.00813 nM | 3.02e-05 s⁻¹ and 2.16e-05 s⁻¹ | 3.06e+06 M⁻¹ s⁻¹ and 2.66e+06 M⁻¹ s⁻¹ | 0.538 | Fab of anti-Activin A antibody Clone D (Fab, V domains shown, Fab format; only VH and VL are tied to the clone; also called Fab of Clone D) VH: QVQLVQSGAEVKKPGASVKVSCKASGYTFFGYSMHWVRQAPGQGLEWMGVINPSSGDTNYAQKFQGRVTMTRDTSISTAYMELSRLRSDDTAVYYCARARDIAALGLGAFDYWGQGTLVTVSS VL: not shown
16 | 0.0431 nM | 7.26e-05 s⁻¹ | 1.68e+06 M⁻¹ s⁻¹ | 0.419 | Fab of anti-Activin A antibody Clone F (Fab, V domains shown, Fab format; only VH and VL are tied to the clone; also called Clone F Fab) VH: QVQLVQSGAEVKKPGASVKVSCKASGYTFTGYHIHWVRQVPGQGLEWMGVISAYSGDTNYAQKLQGRVTMTTDTSTSTAYMELRSLRSDDTAVYYCARARDIAALGLGAFDYWGQGTLVTVSS VL: EIVLTQSPATLSVSPGERATLSCRASQSVSSNLAWYQQKPGQAPRLLIYGASDRATGIPARFSGSGSGTEFTLTISSLQSEDFAVYYCIQYSNYPRTFGGGTKVEIK
17 | 0.0334 nM and 0.0179 nM | 4.52e-05 s⁻¹ and 2.74e-05 s⁻¹ |  | 0.229 | Fab of anti-Activin A antibody Clone C (Fab, V domains shown, Fab format; only VH and VL are tied to the clone; also called Fab of Clone C) VH: QVQLVQSGAEVKKPGASVKVSCKASGYTFPGYHMHWVRQAPGQGLEWMGVINPSSGDTNYAQKFQGRVTMTRDTSISTAYMELSRLRSDDTAVYYCARARDIAALGLGAFDYWGQGTLVTVSS VL: EIVLTQSPGTLSLSPGERATLSCRASQSVSSSYLAWYQQKPGQAPRLLIYGASSRAGGIPDRFSGSGSGTDFTLTISRLEPEDFAVYYCQQYVAYPRTFGGGTKVEIK
